# T1: hANGPTL3(17-460)-His (human, UniProt Q9Y5C1 17-460)
# T1 construct: Bought protein (R&D Systems); also called full-length mature human ANGPTL3 with a C-terminal decahistidine tag; Human ANGPTL3 (17-460)-His
# T1 sequence: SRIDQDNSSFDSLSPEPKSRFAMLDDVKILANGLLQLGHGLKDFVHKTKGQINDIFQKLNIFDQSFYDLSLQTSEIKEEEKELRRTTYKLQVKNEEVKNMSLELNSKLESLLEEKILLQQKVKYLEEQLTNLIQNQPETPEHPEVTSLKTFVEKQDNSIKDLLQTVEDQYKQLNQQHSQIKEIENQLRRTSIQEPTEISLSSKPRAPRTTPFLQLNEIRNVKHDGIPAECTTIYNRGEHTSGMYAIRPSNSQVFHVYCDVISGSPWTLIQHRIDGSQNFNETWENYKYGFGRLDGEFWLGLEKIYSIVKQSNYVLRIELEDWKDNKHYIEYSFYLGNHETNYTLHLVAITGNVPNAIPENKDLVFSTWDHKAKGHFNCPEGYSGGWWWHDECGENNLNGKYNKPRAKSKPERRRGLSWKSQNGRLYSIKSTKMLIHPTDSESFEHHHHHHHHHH
# T2: hANGPTL3(17-170)-His (human, UniProt Q9Y5C1 17-170)
# T2 construct: also called N-terminal coiled-coil domain of hANGPTL3 with a C-terminal hexahistidine tag; Human ANGPTL3 (17-170)-His
# T2 sequence: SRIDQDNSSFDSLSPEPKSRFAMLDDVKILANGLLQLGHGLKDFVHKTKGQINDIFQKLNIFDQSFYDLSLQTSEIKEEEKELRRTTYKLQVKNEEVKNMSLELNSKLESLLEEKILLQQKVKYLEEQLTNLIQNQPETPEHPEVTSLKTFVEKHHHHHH
# T3: MfANGPTL3(17-170)-mmH (Macaca fascicularis)
# T3 construct: also called N-terminal coiled-coil domain of ANGPTL3 from Macaca fascicularis with myc-myc-hexahistidine tag; Monkey ANGPTL3 (17-170)-mmH
# T3 chain: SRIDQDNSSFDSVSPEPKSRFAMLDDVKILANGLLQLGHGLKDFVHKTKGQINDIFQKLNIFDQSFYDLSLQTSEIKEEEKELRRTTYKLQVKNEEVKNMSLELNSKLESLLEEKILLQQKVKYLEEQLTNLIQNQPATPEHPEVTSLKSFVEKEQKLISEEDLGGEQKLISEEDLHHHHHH
# T4: N-terminal biotin tagged Peptide 2 (human, N-terminal biotin tag)
# T4 construct: Immobilised on streptavidin biosensor tips; also called ANGPTL3 peptide
# T4 peptide: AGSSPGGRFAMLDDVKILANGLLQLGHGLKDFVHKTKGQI
# T5: N-terminal biotin tagged Peptide 3 (human, N-terminal biotin tag)
# T5 construct: Immobilised on streptavidin biosensor tips; also called ANGPTL3 peptide
# T5 peptide: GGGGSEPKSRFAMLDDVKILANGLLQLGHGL
# T6: C-terminal biotin tagged Peptide 3 (human, C-terminal biotin tag)
# T6 construct: Immobilised on streptavidin biosensor tips; also called ANGPTL3 peptide
# T6 peptide: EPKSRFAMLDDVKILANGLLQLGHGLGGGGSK
# T7: N-terminal biotin tagged Peptide 1 (human, N-terminal biotin tag)
# T7 construct: Immobilised on streptavidin biosensor tips; also called control ANGPTL4 peptide; hANGPTL4 peptide
# T7 peptide: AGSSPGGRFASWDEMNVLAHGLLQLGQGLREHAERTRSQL
# T8: C-terminal biotin tagged Peptide 2 (human, C-terminal biotin tag)
# T8 construct: Immobilised on streptavidin biosensor tips; also called ANGPTL3 peptide
# T8 peptide: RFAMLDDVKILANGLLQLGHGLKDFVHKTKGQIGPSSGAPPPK
# How the values were obtained:
# [1] = target: T1, hANGPTL3(17-460)-His; assay: SPR Biacore, antigen captured, 37C, pH 7.2, PBSP
# Description: (§1) All kinetic binding experiments were performed at 25° C. or 37° C. on a BIACORE™ T200 label-free molecular interaction instrument (GE Healthcare) using a CM5 sensor chip. Briefly, an antigen capture surface was generated by covalently coupling either an anti-mouse IgG-specific antibody (anti-mFc; GE Healthcare; catalog #BR-1008-38) or an anti-pentahistidine-specific antibody (Qiagen; catalog #34660) to the surface of a CM5 sensor chip using a standard amine coupling method.
# [2] = target: T2, hANGPTL3(17-170)-His; assay: SPR Biacore, antigen captured, 37C, pH 7.2, PBSP
# Description: as §1
# [3] = target: T3, MfANGPTL3(17-170)-mmH; assay: SPR Biacore, antigen captured, 37C, pH 7.2, PBSP
# Description: as §1
# [4] = target: T4, N-terminal biotin tagged Peptide 2; assay: OCTET RED label-free biosensor; biotinylated peptide on streptavidin-coated tips dipped into 1 uM antibody, binding monitored for 2.5 minutes
# Description: (§2) To assess the binding of the anti-ANGPTL3 antibody H4H1276S to peptides derived from the N-terminal coiled-coil region of ANGPTL3, a label-free biosensor binding assay was performed using OCTET® RED system (ForteDo, Inc.). […] The peptide-coated biosensor tips were then dipped into wells containing 1 μM of either anti-ANGPTL3 antibody H4H1276S or an isotype-matched negative control antibody, and binding was monitored for 2.5 minutes. It was observed that H4H1276S binds to the ANGPTL3 linear sequence defined by Peptide 2 but not the overlapping but distinct sequence defined by Peptide 3 (see also FIG. 1). The isotype control antibody also served as a positive control for loading of Peptide 1 (i.e., hANGPTL4 peptide) onto the biosensor, because this isotype control antibody specifically recognizes hANGPTL4.
# [5] = target: T5, N-terminal biotin tagged Peptide 3; assay: as above
# Description: as §2
# [6] = target: T6, C-terminal biotin tagged Peptide 3; assay: as above
# Description: as §2
# [7] = target: T7, N-terminal biotin tagged Peptide 1; assay: as above
# Description: as §2
# [8] = target: T8, C-terminal biotin tagged Peptide 2; assay: as above
# Description: as §2
# [9] = target: T1, hANGPTL3(17-460)-His; assay: SPR Biacore, antigen captured, 25C, pH 5.75, PBSP
# Description: as §1
# [10] = target: T3, MfANGPTL3(17-170)-mmH; assay: SPR Biacore, antigen captured, 25C, pH 5.75, PBSP
# Description: as §1
binder,measurement,setting,value
"H4H1276S (antibody, IgG4, V domains shown) VH: EVQLVESGGGVIQPGGSLRLSCAASGFTFDDYAMNWVRQGPGKGLEWVSAISGDGGSTYYADSVKGRFTISRDNSKNSLYLQMNSLRAEDTAFFYCAKDLRNTIFGVVIPDAFDIWGQGTMVTVSS VL: not shown",Kd,[1],1.76 nM
same,koff,[1],0.00118 s⁻¹
same,kon,[1],667000 M⁻¹ s⁻¹
same,t1/2,[1],9.8 min
same,Kd,[2],1.74 nM
same,koff,[2],0.00273 s⁻¹
same,kon,[2],1.57e+06 M⁻¹ s⁻¹
same,t1/2,[2],4.2 min
same,Kd,[3],0.7 nM
same,koff,[3],0.00136 s⁻¹
same,kon,[3],1.94e+06 M⁻¹ s⁻¹
same,t1/2,[3],8.5 min
same,binding result,[4],binds
same,binding result,[5],no binding (tested: 1 uM)
same,binding result,[6],no binding (tested: 1 uM)
same,binding result,[7],no binding (tested: 1 uM)
same,binding result,[8],binds
same,Kd,[9],67.5 nM
same,koff,[9],0.00494 s⁻¹
same,kon,[9],73200 M⁻¹ s⁻¹
same,t1/2,[9],2.3 min
same,Kd,[10],21 nM
same,koff,[10],0.00432 s⁻¹
same,kon,[10],206000 M⁻¹ s⁻¹
same,t1/2,[10],2.7 min

# Source: patent US20150197564A1 (Regeneron, published 2015)
